# Measured values as given in PMC5365074 (Nature structural & molecular biology, 2017).
# B1: USP18 (no tag named), expressed in U6A cells (enzyme)
# chain: MSKAFGLLRQICQSILAESSQSPADLEEKKEEDSNMKREQPRERPRAWDYPHGLVGLHNIGQTCCLNSLIQVFVMNVDFTRILKRITVPRGADEQRRSVPFQMLLLLEKMQDSRQKAVRPLELAYCLQKCNVPLFVQHDAAQLYLKLWNLIKDQITDVHLVERLQALYTIRVKDSLICVDCAMESSRNSSMLTLPLSLFDVDSKPLKTLEDALHCFFQPRELSSKSKCFCENCGKKTRGKQVLKLTHLPQTLTIHLMRFSIRNSQTRKICHSLYFPQSLDFSQILPMKRESCDAEEQSGGQYELFAVIAHVGMADSGHYCVYIRNAVDGKWFCFNDSNICLVSWEDIQCTYGNPNYHWQETAYLLVYMKMEC
# Molecular target: T1, FLAG-IFNAR2 (human, UniProt P48551 27-515)
# T1 sequence: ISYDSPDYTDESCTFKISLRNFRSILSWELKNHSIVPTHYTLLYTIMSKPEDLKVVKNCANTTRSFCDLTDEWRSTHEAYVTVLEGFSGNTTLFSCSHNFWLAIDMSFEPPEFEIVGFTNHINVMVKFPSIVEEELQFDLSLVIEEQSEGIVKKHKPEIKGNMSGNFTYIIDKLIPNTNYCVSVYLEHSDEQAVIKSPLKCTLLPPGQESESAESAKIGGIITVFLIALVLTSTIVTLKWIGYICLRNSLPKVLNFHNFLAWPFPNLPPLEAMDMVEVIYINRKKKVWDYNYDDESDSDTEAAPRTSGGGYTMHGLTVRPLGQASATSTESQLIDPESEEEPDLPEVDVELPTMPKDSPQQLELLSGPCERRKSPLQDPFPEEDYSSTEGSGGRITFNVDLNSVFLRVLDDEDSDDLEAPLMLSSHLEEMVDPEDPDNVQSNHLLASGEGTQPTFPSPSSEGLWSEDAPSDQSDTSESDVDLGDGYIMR
# Assay: co-IP
binder,measurement,value
B1,fold enhancement of the co-precipitation upon expression of STAT2,≤ 10 fold
